# B1: sortase F: recombinant sortase F enzyme from P. acnes KPA171202, with N-terminal MS peptide and C-terminal TwinStrep-comprising tag (protein)
# chain: TTTSSTSGIPAASAAKKGPVPAGCMKTPKPIVPVKYSIDGMKASAKVLSRGVDETGAAGAPPKNDPSSMAWFNQGPKIGSDKGNAVLTAHTYHKGGALGNRLYDKNNGIKKGDIIRLTDKTGQTVCYRYDHDTKVMVKDYNPNSNILYDNNGPAQAAIVICWDYVKKTGEFDSRVIFYTYPVA
# modifications: Propionibacterium acnes
# Tests used:
# Assay type in all cases: biochemical
# [1] = test system: FITC-labelled LPXTGE, DNPNTGDE, ENPXTNAGT, KLPXTASN and ALAXTGSE peptides; experiment: Sortase activity assay, gel-based, FITC-labelled peptide substrates; conditions: conjugation to 60 kDa Gly6 protein, 25° C., 6 to 24 hours, FITC emission
# Procedure: The reaction was performed at 25° C. for 6 to 24 hours, and stopped by addition of reducing SDS-PAGE loading buffer, followed by 5 min. incubation at 95° C. Reaction products were loaded on a 12% SDS-PAGE gel and run according to standard protocols. Labelled reaction products were visualized by FITC emission using the FLA-9000 Imager from Fujifilm, and quantified using ImageJ software.
# [2] = test system: self-quenching peptide Dabcyl-QALPQTGET-Edans and triglycine; experiment: Optimization of sortase conjugation reaction conditions, fluorescence assay; conditions: initial rate, temperature varied 15 to 45° C., pH 8.5, 500 mM NaCl
# Procedure: Reactions were performed over a period of 1 hour, varying the reaction temperature between 15 and 45° C. and measuring fluorescence over time (using a plate reader or fluorescence spectrometer, with excitation at 350 nm and emission at 495 nm).
# Initial rate of sortase F-mediated ligation at different temperatures was evaluated based on regression of the fluorescence over time.
# [3] = test system: FITC-labelled LPQTGE peptide and GGGK-biotin; experiment: Optimization of sortase conjugation reaction conditions, HPLC-based assay; conditions: initial rate (samples up to 3 hours), RP-HPLC, pH 8.5, NaCl, 25° C.
# Procedure: The reaction was performed at 25° C. over a period of 24 hours (with 6 samplings in the period up to 3 hours), independently varying the following parameters: • pH over a range of 4 to 11 (using a mixture of boric and citric acid, along with phosphate buffer to achieved the desired pH), while the concentration of NaCl at 500 mM; • NaCl concentration over a range of 0 to 3 M, while maintaining the pH at 8.5 (using 50 mM of sodium phosphate to establish the desired pH).
# The reaction was stopped by adding 95 μL of 0.05 M HCl per 5 μL of reaction mixture. Reaction products were loaded into XBridge C18 HPLC columns equilibrated in 0.1% NH4OH in 5% methanol. Elution was performed with a linear gradient from 0 to 100% of 0.1% NH4OH in 95% methanol over 10 mL at flow rate of 0.5 mL/min and a temperature of 30° C. Eluted peptides were detected by absorbance at 497 nm and fluorescence at 522 nm (excitation at 497 nm) and peak areas were quantified.
molecule,measurement,setting,value
B1,substrate peptide on which the enzyme is active,[1],principally active on the LPXTGE
same,temperature above which the reaction rate decreased,[2],above 40 °C
same,temperature optimum of sortase F activity rate,[2],about 25 °C
same,salt concentration optimum for initial sortase F activity rate,[3],above 250 mM

# Source: patent US12533420B2 (NBE-Therapeutics AG, priority 2018, dated 2026)
